Data published in patent US20050096290, “5'-and 3'-capped aptamers and uses therefor” (published 2005).

How the values were obtained:
[1] = biological target: T1, VEGF165 (vascular endothelial growth factor A, 165 isoform) (Homo sapiens, UniProt P15692-4 P15692-4:27-191); test: competition; competitive ELISA-like plate assay against biotinylated DNA competitor on immobilized VEGF165, chemiluminescence readout; conditions: tags: recombinant human VEGF165, immobilized on 96-well plate; chain copies: 2 inferred
Protocol: (§1) The ability of anti-VEGF aptamers to bind to human vascular endothelial growth factor (VEGF) was determined using a competitive binding ELISA-like assay. In this assay, recombinant VEGF₁₆₅ is bound to the wells of a 96-well plate (Quadra 96 Plus). Following blocking of nonspecific reactive sites on the plate, a matrix of the test aptamer and a biotinylated competitor, the DNA oligonucleotide shown below, were added.
(§2) “X” represent a biotin moiety in the above representation. Both the biotinylated competitor and the test aptamer compete for binding sites on the immobilized VEGF. Following the removal of the unbound biotinylated competitor and unbound test aptamer, the amount of biotinylated competitor remaining is detected using a chemiluminescence reaction. The entire plate was immediately read on a luminometer (Victor 2). The amount of bound biotinylated competitor is inversely related to the amount of bound test aptamer.

[2] = biological target: T1, VEGF165 (vascular endothelial growth …); test: competition; biotinylated competitor binds immobilized VEGF165 and is displaced by test aptamer; printed as SEQ ID NO:1 in text but matches listing SEQ 11; conditions: tags: recombinant human VEGF165, immobilized on 96-well plate; chain copies: 2 inferred; label: two 5' biotin moieties (XX)
Protocol: as §1, §2

T1 sequence (P15692 other isoform, or with tags, fused parts or gaps): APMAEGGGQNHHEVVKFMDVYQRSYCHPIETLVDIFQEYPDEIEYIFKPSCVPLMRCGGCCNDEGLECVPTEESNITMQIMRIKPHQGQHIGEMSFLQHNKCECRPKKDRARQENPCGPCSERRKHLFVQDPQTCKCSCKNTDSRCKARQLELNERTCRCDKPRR

| Binder | IC50 [1] | binding result [2] |
| --- | --- | --- |
| CGGAAUCAGUGAAUGCUUAUACAUCCG (ssRNA, 2'-F on all C and U; 2'-OMe on all G and on A except A4 and A5 (ribo); 5'-5' inverted dT cap; 3'-3' inverted dT cap) [Oligonucleotide 1 (5'-5' and 3'-3' inverted dT capped anti-VEGF aptamer)] | 3.28 nM |  |
| CCCGTCTTCCAGACAAGAGTGCAGGG (ssDNA) [biotinylated DNA competitor oligonucleotide] |  | binds |
